Experimental data as given in US20210355185A1 (Xencor, published 2021).
Changes are numbered by the printed parent chain. In names and notes the source's numbering stands. Each block holds one binder with its values, some of them ahead of it.

Key:
human PD-1-His = target: T1, human PD-1-His (human, UniProt Q15116 25-167, limits assumed); assay: Octet BLI; antibody captured on anti-human Fc (AHC) biosensors, dipped into PD-1-His
T1 construct: not shown: His tag

PD-1-His = target: T2, PD-1-His (UniProt Q15116 25-167, limits assumed); assay: Octet affinity screen; bivalent IgG1 format
T2 construct: Captured on HIS1K biosensors; not shown: His tag
T2 sequence (Q15116 25-167 limits assumed): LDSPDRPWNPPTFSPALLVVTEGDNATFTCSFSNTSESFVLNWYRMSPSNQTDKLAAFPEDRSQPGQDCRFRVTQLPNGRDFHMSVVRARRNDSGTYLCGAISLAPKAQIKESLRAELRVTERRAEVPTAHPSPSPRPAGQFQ
From the text: We engineered affinity optimized variants of mAb C. A library of variants was constructed by standard mutagenesis to introduce point mutations into the variable heavy or variable light regions of XENP28536. Illustrative sequences are depicted in FIG. 70A-FIG. 70I (variable domain sequences).

T1 sequence (Q15116 25-167 limits assumed): as above

binding result (human PD-1-His): binds
B1: XENP28536 (antibody, human IgG1, kappa, V domains shown)
VH: EVQLVESGGGLVQPGGSLRLSCAASGFTFSSFGMHWVRQAPGKGLEWVSYISSGSSIIYYADSVKGRFTISRDNAKNSLYLQMNSLRAEDTAVYYCARGGRLVWSPDYWGQGTLVTVSS
VL: DIVMTQSPDSLAVSLGERATINCKSSQSLLNSGNQKNYLTWYQQKPGQPPKLLIYWASTRESGVPDRFTGSGSGTDFTLTISSLQAEDVAVYYCQNDYSYPFTFGSGTKLEIKR
notes: Format is bivalent human IgG1 with E233P/L234V/L235A/G236del/S267K; also called mAb C; mAb C[PD-1]_H1L1

fold improved affinity over WT (mAb C[PD-1]_H1L1) (PD-1-His): > 2 fold
B2: mAb C[PD-1]_H1_L1.1 (antibody, IgG1, V domains shown)
VH: B1 VH
VL: DIVMTQSPDSLAVSLGERATINCKSSQSLLHSGNQKNYLTWYQQKPGQPPKLLIYWASTRESGVPDRFTGSGSGTDFTLTISSLQAEDVAVYYCQNDYSYPFTFGSGTKLEIK

fold improved affinity over WT (mAb C[PD-1]_H1L1) (PD-1-His): > 2 fold
B3: mab_C[PD-1]_H1_L1.3 (antibody, IgG1, V domains shown)
VH: B1 VH
VL: B2 VL with H31S
